Patent publication US11142588B2, “Polypeptides which bind C-X-C chemokine receptor type 4 (CXCR4) and methods of treating or reducing the risk of fibrosis and cancer” (AdAlta Limited, priority 2015, dated 2021)
“And” between values parts separate entries of the source, which are not always exact repeats. Identical values can stand only once.

Legend:
human fibrocytes = experiment: Binding to human fibrocytes (confocal microscopy); assay type: cell-based; details: CD45 positive cells of PBMCs
Description: PBMCs were smeared on a microscope slide and fixed with acetone at 4° C. for 10 minutes. Following three times washing and rehydration with PBS the slides were incubated with mouse antiFLAG 1:100 dilution over night at 4° C. After washing the slides were incubated with Goat anti-mouse Alex Fluor 568 (to detect i-body by binding anti FLAG) at room temperature for 1 hour. The slides were then washed and incubated with Mouse anti-CD-45 FITC labeled antibody over night at 4° C. After further washing the slides were and mounted with ProLong Gold antifade mountant containing DAPI. Images were captured by using Nikon A1 confocal microscope.

[1] = target: T1, human CXCR4 (CXCR4 positive lipoparticles) (Homo sapiens, UniProt P61073); experiment: Biacore SPR kinetic binding to immobilised CXCR4 lipoparticles
T1 construct: purchased Integral Molecular LEV-101B

CXCR4 = CXCR4 (Homo sapiens, UniProt P61073); experiment: β-arrestin BRET assay, antagonist mode with 100 nM SDF-1; assay type: cell-based; parameters: expressed in transfected cells; host or cells: HEK293FT; details: read-out: IC50 (nM) in β-Arrestin BRET assay (Antagonist mode in the presence of 100 nM SDF-1)
In short: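 Ten concentrations of i-body with 100 nM SDF-1 were applied to transiently transfected HEK293FT cells carrying CXCR4/Rluc8 donor and β-arrestin2/Venus acceptor. Emissions at 400-475 and 520-540 nm were read at 37 °C, and the vehicle-subtracted ratio gave the BRET signal (four independent duplicate experiments).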

[2] = CXCR4 expressed on lipoparticles (Table 4)

T1 sequence (P61073 whole entry): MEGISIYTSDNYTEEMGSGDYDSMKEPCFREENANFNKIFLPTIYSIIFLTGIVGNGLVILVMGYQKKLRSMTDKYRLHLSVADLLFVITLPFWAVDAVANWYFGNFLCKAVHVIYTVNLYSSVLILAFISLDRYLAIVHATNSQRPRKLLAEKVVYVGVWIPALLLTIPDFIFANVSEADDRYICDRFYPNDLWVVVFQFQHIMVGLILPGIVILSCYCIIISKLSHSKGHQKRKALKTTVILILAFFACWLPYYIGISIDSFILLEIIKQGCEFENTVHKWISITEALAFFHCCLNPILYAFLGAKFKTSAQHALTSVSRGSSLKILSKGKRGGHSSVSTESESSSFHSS
CXCR4, sequence (P61073 whole entry): as above

binding to human fibrocytes (human fibrocytes)	Kd [1, 2]	dissociation rate constant (kd) ([1]; off-rate, CXCR4 expressed on lipoparticles (Table 3))	IC50 (CXCR4) [nM]	Molecule	dissociation rate constant (kd) [1, 2]
capable of binding to human fibrocytes				AM3-114: affinity matured CXCR4 i-body, SEQ ID NO: 40	
	9.47 nM and 8.53 nM	0.00998	12700	AM3-523: affinity matured CXCR4 i-body, SEQ ID NO: 56 (protein, protein sequence encoding AM3-523) LQVDIVPSQGEISVGESKFFLCQVAGSGSHMRISWFSPNGEKLTPNQQRISVVWNDDSSSTLTIYNANIDDAGIYKCVVWVGGYRHRALVLGEATVNVKIFQ	9150 M⁻¹ s⁻¹ and 8610 M⁻¹ s⁻¹
